Results on 94 variants are retold here after the supplement of paper PMC10567573.

To fix the notation:
B1: WEE1 (parent)
chain: INPFTPDSLLLHSSGQCRRRKRTY
B2: SPDEF (parent)
chain: YPEDSSWAAKAPGASSREEPPEEP
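Note: lentivirally expressed fusions sorted by FACS into six bins by GFP to DsRed ratio, PSI derived from sequencing read proportions per bin multiplied by bin number.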

The variants in the first data set derive from B1. Briefly: protein stability index of a GFP-peptide fusion (GPS, HEK-293T) (PSI 1-6); higher = more stable. Particulars: c terminus: a fixed tail appended.
INPFTPDSLLLHSSGECRRRKRTY [Q16E]: the protein stability index amounted to 3.69.

INPFTPDSLLLHSSGNCRRRKRTY [Q16N]: the protein stability index is 4.03.

In the case of INPFTPDSLLLHSSGKCRRRKRTY [Q16K], the protein stability index worked out at 3.69.

Turning to INPFTPDSLLLHSSGPCRRRKRTY [Q16P], the protein stability index amounted to 3.92.

INPFTKDSLLLHSSGQCRRRKRTY [P6K]: the protein stability index is 3.26.

In the case of INPFTGDSLLLHSSGQCRRRKRTY [P6G], the protein stability index was found to be 3.58.

Regarding INPFTTDSLLLHSSGQCRRRKRTY [P6T], the protein stability index is 3.2.

Regarding INPFTLDSLLLHSSGQCRRRKRTY [P6L], the protein stability index worked out at 2.06.

As for INPFTHDSLLLHSSGQCRRRKRTY [P6H], the protein stability index is 3.18.

With INPFTSDSLLLHSSGQCRRRKRTY [P6S], the protein stability index was found to be 3.61.

For INRFTPDSLLLHSSGQCRRRKRTY [P3R], the protein stability index was found to be 3.4.

For INPFIPDSLLLHSSGQCRRRKRTY [T5I], the protein stability index was determined as 2.48.

Take INPFEPDSLLLHSSGQCRRRKRTY [T5E]: the protein stability index was 3.98.

For INPFTPDSLLLHSSGQCRRRKCTY [R22C], the protein stability index is 3.17.

Turning to INPFTPDSLLLHSSGQCRRRKFTY [R22F], the protein stability index amounted to 2.71.

As to INPFTPDSLLLPSSGQCRRRKRTY [H12P], the protein stability index worked out at 3.4.

INPFTPDSLLLTSSGQCRRRKRTY [H12T]: the protein stability index was found to be 3.45.

On to INPFTPDSLLQHSSGQCRRRKRTY [L11Q], for which the protein stability index stood at 3.39.

As for INPFTPDSLLFHSSGQCRRRKRTY [L11F], the protein stability index was 3.01.

Regarding INPFTPDSLLSHSSGQCRRRKRTY [L11S], the protein stability index turned out to be 3.96.

As to INPFTPDSLLGHSSGQCRRRKRTY [L11G], the protein stability index was found to be 3.95.

For the variant INPFTPDSLLLHSYGQCRRRKRTY [S14Y], the protein stability index is 2.36.

In the case of INPFTPDSLLLHSIGQCRRRKRTY [S14I], the protein stability index was found to be 3.16.

As to INPFTPDSLLLHSRGQCRRRKRTY [S14R], the protein stability index was 3.81.

With INPFTPDSLKLHSSGQCRRRKRTY [L10K], the protein stability index was 3.2.

Take INPFTPDSLALHSSGQCRRRKRTY [L10A]: the protein stability index is 3.96.

For INPFTPDSLDLHSSGQCRRRKRTY [L10D], the protein stability index was determined as 3.9.

INPFTPDSHLLHSSGQCRRRKRTY [L9H]: the protein stability index was 4.06.

In the case of INPFTPDSYLLHSSGQCRRRKRTY [L9Y], the protein stability index amounted to 2.63.

For INPFTPDSPLLHSSGQCRRRKRTY [L9P], the protein stability index was determined as 3.96.

For the variant INPFTPDSKLLHSSGQCRRRKRTY [L9K], the protein stability index came out at 3.42.

Consider INPFTPDSLLLHSSGQCRRCKRTY [R20C], for which the protein stability index was determined as 2.5.

As for INPFTPDSLLLHSSGQCRRQKRTY [R20Q], the protein stability index was determined as 2.81.

In the case of INPFTPDSLLLHSSGQCRRWKRTY [R20W], the protein stability index amounted to 1.82.

In the case of INPFTPDSLLLHSSGQCDRRKRTY [R18D], the protein stability index stood at 3.78.

Turning to INPFTPDSLLLHSSGQCWRRKRTY [R18W], the protein stability index amounted to 2.29.

With INPYTPDSLLLHSSGQCRRRKRTY [F4Y], the protein stability index was 3.31.

Take INPFTPDSLLLHVSGQCRRRKRTY [S13V]: the protein stability index stood at 2.61.

INPFTPDSLLLHRSGQCRRRKRTY [S13R]: the protein stability index is 3.12.

Consider INPFTPDSLLLHQSGQCRRRKRTY [S13Q], for which the protein stability index came to 3.44.

With INPFTPDSLLLHHSGQCRRRKRTY [S13H], the protein stability index was 4.14.

Regarding INPFTPDSLLLHSSGQYRRRKRTY [C17Y], the protein stability index was found to be 3.04.

For INPFTPDSLLLHSSFQCRRRKRTY [G15F], the protein stability index was found to be 1.99.

Consider INPFTPDSLLLHSSVQCRRRKRTY [G15V], for which the protein stability index stood at 2.79.

As to INPFTPDSLLLHSSRQCRRRKRTY [G15R], the protein stability index came out at 4.12.

As to INPFTPDSLLLHSSAQCRRRKRTY [G15A], the protein stability index is 3.71.

Turning to SNPFTPDSLLLHSSGQCRRRKRTY [I1S], the protein stability index was found to be 3.52.

As for FNPFTPDSLLLHSSGQCRRRKRTY [I1F], the protein stability index was 2.73.

Turning to VNPFTPDSLLLHSSGQCRRRKRTY [I1V], the protein stability index was 3.55.

As to QNPFTPDSLLLHSSGQCRRRKRTY [I1Q], the protein stability index came out at 3.95.

Consider DNPFTPDSLLLHSSGQCRRRKRTY [I1D], for which the protein stability index came to 4.03.

For ENPFTPDSLLLHSSGQCRRRKRTY [I1E], the protein stability index was 3.6.

For the variant RNPFTPDSLLLHSSGQCRRRKRTY [I1R], the protein stability index turned out to be 4.02.

With INPFTPDILLLHSSGQCRRRKRTY [S8I], the protein stability index was 2.6.

With INPFTPDSLLLHSSGQCRRRKRVY [T23V], the protein stability index turned out to be 3.06.

As to INPFTPDSLLLHSSGQCRRRKRAY [T23A], the protein stability index was 3.79.

INPFTPDSLLLHSSGQCRRRKRFY [T23F]: the protein stability index came out at 3.36.

Turning to INPFTPDSLLLHSSGQCRGRKRTY [R19G], the protein stability index stood at 3.34.

On to INPFTPDSLLLHSSGQCRYRKRTY [R19Y], for which the protein stability index came out at 2.83.

For the variant INPFTPDSLLLHSSGQCRKRKRTY [R19K], the protein stability index came out at 3.32.

On to INPFTPDSLLLHSSGQCRSRKRTY [R19S], for which the protein stability index is 3.78.

INPFTPDSLLLHSSGQCRRRARTY [K21A]: the protein stability index turned out to be 3.77.

Regarding INPFTPDSLLLHSSGQCRRRLRTY [K21L], the protein stability index is 2.72.

Consider IYPFTPDSLLLHSSGQCRRRKRTY [N2Y], for which the protein stability index is 2.55.

Regarding IDPFTPDSLLLHSSGQCRRRKRTY [N2D], the protein stability index is 4.16.

Regarding INPFTPDSLLLHSSGQCRRRKRTM [Y24M], the protein stability index worked out at 3.48.

In the case of INPFTPDSLLLHSSGQCRRRKRTN [Y24N], the protein stability index amounted to 3.75.

For INPFTPDSLLLHSSGQCRRRKRTV [Y24V], the protein stability index came out at 3.95.

On to INPFTPDSLLLHSSGQCRRRKRTE [Y24E], for which the protein stability index worked out at 3.13.

As for INPFTPNSLLLHSSGQCRRRKRTY [D7N], the protein stability index was found to be 2.41.

INPFTPQSLLLHSSGQCRRRKRTY [D7Q]: the protein stability index was determined as 3.52.

Turning to INPFTPKSLLLHSSGQCRRRKRTY [D7K], the protein stability index came to 3.31.

In the case of INPFTPMSLLLHSSGQCRRRKRTY [D7M], the protein stability index amounted to 3.12.

In another data set the parent is B2. Described as above. Conditions: c terminus: a fixed tail appended.
On to HPEDSSWAAKAPGASSREEPPEEP [Y1H], for which the protein stability index is 5.7.

As for FPEDSSWAAKAPGASSREEPPEEP [Y1F], the protein stability index stood at 3.03.

On to NPEDSSWAAKAPGASSREEPPEEP [Y1N], for which the protein stability index came out at 5.56.

On to YPEDSSWAAKAPGPSSREEPPEEP [A14P], for which the protein stability index is 3.94.

For the variant YPEDSSWAAKAPGQSSREEPPEEP [A14Q], the protein stability index worked out at 4.08.

Take YPEDSSWAAKAPGHSSREEPPEEP [A14H]: the protein stability index was 3.77.

On to YPEDSSWAAKAPGMSSREEPPEEP [A14M], for which the protein stability index came out at 3.15.

Consider YPEDSSWAAKAPGASSREMPPEEP [E19M], for which the protein stability index is 4.07.

With YPEDSSWAAKAPGASSRECPPEEP [E19C], the protein stability index worked out at 3.58.

Consider YPEDSSWAAKAPGASSRESPPEEP [E19S], for which the protein stability index is 4.97.

For the variant YPEDSSWAAKAPGASSREWPPEEP [E19W], the protein stability index came out at 3.53.

Consider YPEDSSWAAKACGASSREEPPEEP [P12C], for which the protein stability index was 3.31.

In the case of YPEDSSWAAKATGASSREEPPEEP [P12T], the protein stability index stood at 4.58.

YPEDSSWAAKASGASSREEPPEEP [P12S]: the protein stability index was 4.16.

Consider YPEDSSWAAKALGASSREEPPEEP [P12L], for which the protein stability index worked out at 3.33.

YPEDASWAAKAPGASSREEPPEEP [S5A]: the protein stability index was determined as 4.69.

For the variant YPEDNSWAAKAPGASSREEPPEEP [S5N], the protein stability index was 4.16.

Take YPEDVSWAAKAPGASSREEPPEEP [S5V]: the protein stability index worked out at 4.71.

In the case of YPEDHSWAAKAPGASSREEPPEEP [S5H], the protein stability index amounted to 3.99.

Consider YPEDESWAAKAPGASSREEPPEEP [S5E], for which the protein stability index was 5.72.

Turning to YPEDPSWAAKAPGASSREEPPEEP [S5P], the protein stability index was 4.06.
